Patent US20220249633A1

Biological target: HLA-A*24 (human)
Assay: UV-exchange ELISA, exchange yield grade

Row | Binder | peptide exchange yield
1 | KYTDWTEFL [… (SEQ ID NO: 266)] | 50 to 75%
2 | IFITKALQI [… (SEQ ID NO: 268)] | 20 to 49%
3 | YYSQESKVLYL [… (SEQ ID NO: 270)] | 50 to 75%
4 | RFLMKSYSF [… (SEQ ID NO: 271)] | > 75%
5 | IYGEKLQFIF [… (SEQ ID NO: 273)] | 50 to 75%
6 | QYLDVLHAL [… (SEQ ID NO: 276)] | > 75%
7 | FYTFPFQQL [… (SEQ ID NO: 277)] | 50 to 75%
8 | TYNPNLQDKL [… (SEQ ID NO: 280)] | > 75%
9 | NYLVDPVTI [… (SEQ ID NO: 282)] | 50 to 75%
10 | VYVGDALLHAI [… (SEQ ID NO: 285)] | 50 to 75%
11 | SYGTILSHI [… (SEQ ID NO: 286)] | > 75%
12 | IYNPNLLTASKF [… (SEQ ID NO: 287)] | 50 to 75%
13 | KYGDFKLLEF [… (SEQ ID NO: 290)] | > 75%
14 | FYPQIINTF [… (SEQ ID NO: 292)] | > 75%
15 | VYPHFSTTNLI [… (SEQ ID NO: 293)] | > 75%
16 | RFPVQGTVTF [… (SEQ ID NO: 294)] | 50 to 75%
17 | SYLVIHERI [… (SEQ ID NO: 295)] | 50 to 75%
18 | TYIDTRTVF [… (SEQ ID NO: 297)] | > 75%
19 | AYKSEVVYF [… (SEQ ID NO: 298)] | > 75%
20 | KFDDVTMLF [… (SEQ ID NO: 301)] | > 75%
21 | LYLPVHYGF [… (SEQ ID NO: 302)] | 50 to 75%
22 | LYSVIKEDF [… (SEQ ID NO: 303)] | 50 to 75%
23 | EYNEVANLF [… (SEQ ID NO: 304)] | 50 to 75%
24 | NYENKQYLF [… (SEQ ID NO: 305)] | > 75%

Row | Binder | peptide exchange yield
25 | VYPAEQPQI [… (SEQ ID NO: 306)] | 50 to 75%
26 | GYAFTLPLF [… (SEQ ID NO: 307)] | 50 to 75%
27 | TFDGHGVFF [… (SEQ ID NO: 308)] | 50 to 75%
28 | KYYRQTLLF [… (SEQ ID NO: 309)] | 20 to 49%
29 | IYAPTLLVF [… (SEQ ID NO: 310)] | 50 to 75%
30 | SYTSVLSRL [… (SEQ ID NO: 312)] | 50 to 75%
31 | KYTHFIQSF [… (SEQ ID NO: 313)] | > 75%
32 | RYFKGDYSI [… (SEQ ID NO: 314)] | 50 to 75%
33 | FYIPHVPVSF [… (SEQ ID NO: 315)] | 50 to 75%
34 | VYFEGSDFKF [… (SEQ ID NO: 316)] | 50 to 75%
35 | VFDTSIAQLF [… (SEQ ID NO: 317)] | 50 to 75%
36 | KYSDVKNLI [… (SEQ ID NO: 319)] | > 75%
37 | SYLTQHQRI [… (SEQ ID NO: 341)] | 50 to 75%
38 | NYAFLHRTL [… (SEQ ID NO: 342)] | 50 to 75%
39 | EYNSDLHQFF [… (SEQ ID NO: 345)] | 50 to 75%
40 | VYAEVNSL [VYAEVNSL (SEQ ID NO: 347)] | 50 to 75%
41 | IYLEHTESI [… (SEQ ID NO: 348)] | 50 to 75%
42 | QYSIISNVF [… (SEQ ID NO: 349)] | 50 to 75%
43 | TYGKIDLGF [… (SEQ ID NO: 353)] | 50 to 75%
44 | VYNEQIRDLL [… (SEQ ID NO: 354)] | 50 to 75%
45 | QFITSTNTF [… (SEQ ID NO: 357)] | > 75%
46 | NYGVLHVTF [… (SEQ ID NO: 359)] | > 75%
47 | VFSPDGHLF [… (SEQ ID NO: 360)] | 50 to 75%
48 | SYAELGTTI [… (SEQ ID NO: 363)] | 20 to 49%

More lines, now with the values ahead:

Row | peptide exchange yield | Binder
49 | 20 to 49% | SFLNIEKTEILF [… (SEQ ID NO: 267)]
50 | 50 to 75% | QYPYLQAFF [… (SEQ ID NO: 269)]
51 | > 75% | RYVFPLPYL [… (SEQ ID NO: 272)]
52 | > 75% | KQLDIANYELF [… (SEQ ID NO: 274)]
53 | > 75% | KYGTLDVTF [… (SEQ ID NO: 275)]
54 | 50 to 75% | VWLPASVLF [… (SEQ ID NO: 279)]
55 | 50 to 75% | NYSPGLVSLIL [… (SEQ ID NO: 281)]
56 | 50 to 75% | EYQEIFQQL [… (SEQ ID NO: 283)]
57 | 50 to 75% | DYLKDPVTI [… (SEQ ID NO: 284)]
58 | 20 to 49% | VYPDTVALTF [… (SEQ ID NO: 288)]
59 | > 75% | FFHEGQYVF [… (SEQ ID NO: 289)]
60 | 50 to 75% | YYLGSGRETF [… (SEQ ID NO: 291)]
61 | > 75% | SYQVIFQHF [… (SEQ ID NO: 296)]
62 | 50 to 75% | KYQYVLNEF [… (SEQ ID NO: 299)]
63 | 50 to 75% | TYPSQLPSL [… (SEQ ID NO: 300)]
64 | > 75% | EYLQNLNHI [… (SEQ ID NO: 311)]
65 | 50 to 75% | TYSNSAFQYF [… (SEQ ID NO: 318)]
66 | 50 to 75% | NYLGGTSTI [… (SEQ ID NO: 343)]
67 | 50 to 75% | EYNSDLHQF [… (SEQ ID NO: 344)]
68 | 50 to 75% | KYGNFIDKL [… (SEQ ID NO: 350)]
69 | 50 to 75% | IFHEVPLKF [… (SEQ ID NO: 351)]
70 | 50 to 75% | QYGGDLTNTF [… (SEQ ID NO: 352)]
71 | 50 to 75% | IYVTGGHLF [… (SEQ ID NO: 355)]
72 | > 75% | NYMPGQLTI [… (SEQ ID NO: 356)]
73 | 50 to 75% | YYSEVPVKL [… (SEQ ID NO: 358)]
74 | 50 to 75% | TYADIGGLDNQI [… (SEQ ID NO: 361)]
75 | 20 to 49% | VYNYAEQTL [… (SEQ ID NO: 362)]
